Read-outs that look alike come from different tables or passages of the source.
What was measured:
[1] = target: the molecule itself; assay: negative-stain electron microscopy single-particle reconstruction
[2] = target: the molecule itself; assay: as above; remark: listed apart in the source

B1: Methanothermobacter thermautotrophicus MCM (natural protein, UniProt O27798 1-666, looked up)
chain: MMKTVDKSKTLTKFEEFFSLQDYKDRVFEAIEKYPNVRSIEVDYLDLEMFDPDLADLLIEKPDDVIRAAQQAIRNIDRLRKNVDLNIRFSGISNVIPLRELRSKFIGKFVAVDGIVRKTDEIRPRIVKAVFECRGCMRHHAVTQSTNMITEPSLCSECGGRSFRLLQDESEFLDTQTLKLQEPLENLSGGEQPRQITVVLEDDLVDTLTPGDIVRVTGTLRTVRDERTKRFKNFIYGNYTEFLEQEFEELQISEEDEEKIKELAGDPNIYEKIIRSTAPSIHGYREVKEAIALQLFGGTGKELDDKTRLRGDIHILIVGDPGIGKSQMLKYVSKLAPRGIYTSGKGTSGVGLTAAAVRDEFGGWSLEAGALVLGDKGNVCVDELDKMREEDRSAIHEALEQQTISIAKAGIMATLNSRCSVLAAANPKFGRFDSYKSIAEQIDLPSTILSRFDLIFVVEDKPDEEKDRELARHILKTHKEDHMPFEIDPELLRKYIAYARKNVRPVLTDEAMQVLEDFYVSMRASAADEDSPVPITARQLEALVRLSEASAKIKLKEHVEAEDARKAIKLSQACLKQVGYDPETGKIDIDKVEGRTPKSERDKFRLLLELIKEYEDDYGGRAPTNILITEMMDRYNVSEEKVEELIRILKDKGAIFEPARGYLKIV
[1]
  stoichiometry N: 14
[2]
  stoichiometry N: 12
